{
  "source": "patent US20250207140",
  "about": "(published 2025)",
  "biological_target": "SARS-CoV-2 spike protein (original strain) (SARS-CoV-2, UniProt P0DTC2 P0DTC2:14-1273)",
  "assay": "flow",
  "data": [
    {"binder": "SEQ ID NO: 14 aptamer (72 nt truncation of SEQ ID NO: 1) (ssRNA, 2'-F pyrimidines) RNA: GGGAGAGCGGAAGCGUGCUGGGCCCCUUUGACCAUAGGAGGCAAGUCUUAUGUUCAAACUGGUCCAUAACCC", "values": [
      {"measurement": "Kd", "value": 20.7, "unit": "nM"}
    ]}
  ]
}
